Data: patent US11110158B2, “Prostate-associated antigens and vaccine-based immunotherapy regimens” (Pfizer Inc., priority 2012, dated 2021)

Test system: PSA
Assay: Sandwich ELISA, anti-PSA antibody response in vaccinated mice
Type: in vivo, mouse
Settings: Table 15; for # of positive: mice with anti-PSA antibody response / mice tested

Molecule	ELISA (OD = 1.0) Average (SD) (anti-PSA antibody titer at OD of 1.0)	# of positive
PSA membrane-bound: PSA amino acids 25-261 linked to human PSMA transmembrane domain (aa 15-54), SEQ ID NO: 19 (protein) MASARRPRWLCAGALVLAGGFFLLGFLFGWFIKSSNEATNITPGIVGGWECEKHSQPWQVLVASRGRAVCGGVLVHPQWVLTAAHCIRNKSVILLGRHSLFHPEDTGQVFQVSHSFPHPLYDMSLLKNRFLRPGDDSSHDLMLLRLSEPAELTDAVKVMDLPTQEPALGTTCYASGWGSIEPEEFLTPKKLQCVDLHVISNDVCAQVHPQKVTKFMLCAGRWTGGKSTCSGDSGGPLVCNGVLQGITSWGSEPCALPERPSLYTKVVHYRKWIKDTIVANP	4838 (835)	6/6
PSA secreted: native full length human PSA (amino acids 1-261), SEQ ID NO: 15 (protein, listed as Homo sapiens) MASWVPVVFLTLSVTWIGAAPLILSRIVGGWECEKHSQPWQVLVASRGRAVCGGVLVHPQWVLTAAHCIRNKSVILLGRHSLFHPEDTGQVFQVSHSFPHPLYDMSLLKNRFLRPGDDSSHDLMLLRLSEPAELTDAVKVMDLPTQEPALGTTCYASGWGSIEPEEFLTPKKLQCVDLHVISNDVCAQVHPQKVTKFMLCAGRWTGGKSTCSGDSGGPLVCNGVLQGITSWGSEPCALPERPSLYTKVVHYRKWIKDTIVANP	–	2/6
